From the DeepSol protein solubility set

Assay: soluble on expression in E. coli; label from the status in PepcDB or PDB records
In the case of “MSLKDFAGRTAFVTGGANGVGIGLVRQLLNQGCKVAIADIRQDSIDKALATLEAEGSGPEVMGVQLDVASREGFKMAADEVEARFGPVSILCNNAGVNLFQPIEESSYDDWDWLLGVNLHGVVNGVTTFVPRMVERVKAGEQKGGHVVNTASMAAFLAAGSPGIYNTTKFAVRGLSESLHYSLLKYEIGVSVLCPGLVKSYIYASDDIRPDALKGEVKPVDKTAVERLAGVHEFGMEPDVIGARVIEAMKANRLHIFSHPDHKEELREVFDEIIAEYQDYPKDPGYDQRVAFEKFRADSFAEARRQSRAADEGHHHHHH”, the “soluble on expression in E. coli” value is reported as “soluble”. In the case of “MGSDKIHHHHHHMSVMFDPQAAIYPFPPKPTPLNDDEKQFYREKIKRLLKERNAVMVAHYYTDPEIQQLAEETGGCISDSLEMARFGTKHAASTLLVAGVRFMGETAKILSPEKTILMPTLAAECSLDLGCPIDEFSAFCDAHPDRTVVVYANTSAAVKARADWVVTSSIAVELIEHLDSLGEKIIWAPDRHLGNYVQKQTGADVLCWQGACIVHDEFKTQALTRLKKIYPDAALLVHPESPQSIVEMADAVGSTSQLIKAAKTLPHRQLIVATDRGIFYKMQQAVPEKELLEAPTAGEGATCRSCAHCPWMAMNGLKAIAEGLEQGGAAHEIQVDAALREGALLPLNRMLDFAATLRA”, the “soluble on expression in E. coli” value is reported as “not soluble”. In the case of “MAHHHHHHMGTLEAQTQGPGSMNAAVIDSHSAQDYVVADIALAGWGRKELNIAETEMPGLVQIRDEYKAQQPLKGARIAGSLHMTIQTGVLIETLKALGADVRWASCNIFSTQDHAAAAIVEAGTPVFAFKGESLDEYWEFSHRIFEWPNGEFANMILDDGGDATLLLILGSKAEKDRSVIARPTNEEEVALFKSIERHLEIDGSWYSKRLAHIKGVTEETTTGVHRLYQMEKDGRLPFPAFNVNDSVTKSKFDNLYGCRESLVDGIKRATDVMIAGKIAVVAGYGDVGKGCAQSLRGLGATVWVTEIDPICALQAAMEGYRVVTMEYAADKADIFVTATGNYHVINHDHMKAMRHNAIVCNIGHFDSEIDVASTRQYQWENIKPQVDHIIFPDGKRVILLAEGRLVNLGCATGHPSFVMSNSFTNQTLAQIELFTRGGEYANKVYVLPKHLDEKVARLHLARIGAQLSELSDDQAAYIGVSKAGPFKPDHYRY”, the “soluble on expression in E. coli” value is reported as “soluble”. In the case of “ALGVDKPREIAFEVLDRVRTGEAYANLVLPRLLSKHNLSGRDAAFATEITYGTLRNVGLLDEVIKAASGRELSDIDPEVLDVLRLGAYQVMFTRVEDHAAVDTSVKMVGGLKKFQATGFANAILRNITRKEPEQWLKELEPAEELARVAFRTAHPRWIA”, the “soluble on expression in E. coli” value is reported as “not soluble”. In the case of “MVAAWNRWDLSGIIKHWSPDIVHYSEDNEVSSADMVKLMEGGLKAFPDLQLEMKSIMAEEDRVALRITVTATHQGEFMGVQPTGQRVSWHLVEELRFVDGKVVEHWDVINMRPLLVRLGKLPDVPKVVLEASA”, the “soluble on expression in E. coli” value is reported as “soluble”. In the case of “MVLAIAGCIEAYRTGHDARHGPRVPWERRLSEEDYLARLAAGSVSYSRDVQPILDSRCVVCHGCYDAPCQLKLESFDGLERGASKTPVYDTTRLQATPPTRLFIDAENVQGWRSKGFFPVLNERGDSPEANLRDSLLFRMLELKKAHPLPVSGALPDTFDFRLDRTLNCPTVEEFDDFEDDHPEWGMPYGFPGLSEREHDIVVKWLREGGFAPPPAPVSAEAASAVAQWEAFLNGSSPKERLFARYVYEHLFLGHLHFRGLAPREFFRLVRSRTPPGEPIREIATTRPYDSPGPGEFYYRLRPVQQSIVAKTHMVYELDDARMRRYRELFLDPEYAVDRLPGYAAADAANPFKTFVAIPPRSRYRFLLDDAHFFFSGFMKGSVCRGQAALNVIQDRFWVAFTHPDADPVSNDAQFLADQAERLRLPAEKENSPGIGDIWYTYRALEEDYQAAKAAWLRAHGERGGTTLADLWDGDGDNRDALLTVFRHFDSASVERGLVGDTPLTGWVVDYPLLERIHYLLVAGFDVFGNVGHQLATRLYMDFMRMEAENNFLRFLPSSIRQAERARWYKGIGARINDLWQSPRWGMGGETLIDYRTGNPKQEFFDRVRAGFGKAAGRPDPFTGCGVEVEGCGEGGEPALPPVQASVERELRRLAFARGGGVAFLPELSYLRIRTGSGGAEDGWIYSLVKNTALENVSMLFLEEIRRTPADDTVTLVRGIVGSYPNFFFDLDAAEVGEFVDAILSVDGSKAFGRRLVERFGVRRSNPAFWRISDWFNRRYLEASPVTAGWLDLSRYDNPLEHHHHHH”, the “soluble on expression in E. coli” value is reported as “not soluble”. In the case of “MTENLTVQPERLGVLASHHDNAAVDASSGVEAAAGLGESVAITHGPYCSQFNDTLNVYLTAHNALGSSLHTAGVDLAKSLRIAAKIYSEADEAWRKAIDGLFT”, the “soluble on expression in E. coli” value is reported as “soluble”. With “MTNDVEMKSETEELPPFPTVHILQVVKDAQQQHGLRHGDYARYRKYCAAKLERMRKALKFTNSHNCQKKRKAKFVKKWLSVESVQNVQFLNFGIFESERRYAEAMIDKITLEDNPEKSRKKFSMINSLRKAVLHATNLEKIVQESERFDAPTKLEAQAYAAWMRGMCSFESRNWQKASESLKLAKTVYEKLAEATNNTTLSSIFKGRCREIQPQLRLCEFNIAESPGAVGTMTELMELRMQMGEGGDSSVDKLISEMRASATSAEVVTIEWGGAKSTVDDEKAKQVVQEWKQTEVELAQCQTPKEKMALFEKATADTRDAIDRISDIIRRKSSENADTTVLQSIKAYLEFLKMNGTASRYLAIIDNTKSEKKSKPQDLLRLYDSVIEIYKEVAEIPGADHDKNLIQAFEVKVEYYRAFRCFYMASSYSALHKYSEAAALFDRTVSRVQDAEGKLKKLKSSSFITNETQSSLNELRSEVESAKVTVRAARLASAAGDVKTDSELAKIIDKRPLLETVNEWRQWDVRNSLKDKKTIPVASLPPAFIPMPNKPIFFDLANFHLTMPNVDDRLEKLQKDRDATPKKAAKGSSAAAASSKTSNQEEEEQQGLTGMLSGWKKSFWGNK” the “soluble on expression in E. coli” value was “not soluble”. With “MAGKPKLHYFNGRGRMEPIRWLLAAAGVEFEEKFIGSAEDLGKLRNDGSLMFQQVPMVEIDGMKLVQTRAILNYIASKYNLYGKDIKERALIDMYTEGMADLNEMILLLPLCRPEEKDAKIALIKEKTKSRYFPAFEKVLQSHGQDYLVGNKLSRADISLVELLYYVEELDSSLISNFPLLKALKTRISNLPTVKKFLQPGSPRKPPADAKALEEARKIFRF” the “soluble on expression in E. coli” value was “soluble”. In the case of “MDERTELLKRIEELEEKLRQCQQREQELEALIEEYNEVMKKQFQVFDDFFEKLGTTKMIDPLTRVYAKDHFLRLLSYQHQRAFEENTPYTIFFVKTKVSKNEREKALMKIGKILKECVRVPLDSVGRYSDDTFALFVIGVGKETAPNIEERIKNHIESIGGIEYSIAYKSYPEDFMDLEKAILDLEKAVA”, the “soluble on expression in E. coli” value is reported as “not soluble”. For “MKPQWQQYIQIINQVVKPALGCTEPIAAAYAAAVARTLLNDDPDSIAVQVSDNLYKNSMGVYVPGTGKIGLAIAAAAGALAGNADAGLEVLASVTPEQVAQAQALIDAAKVKVERTETDEFIYCCVTLTSGEQEAMVKICGGHTLIAEKRLNGELVFTADNAQAKATGSICDGVDINIESIYRFAEEVPFEEIQFILKASELNSKLSDEGMSKPYGLEVGRTMKNGIAAGIIGEDLLNKIVMLTAAASDARMGGANLPAMSNLGSGNQGIAATIPVVITAQCYKVSEEKLARALIMSHLGAIYIKSHYPPLSAFCGNTVTSAAASMAMVYLAGGSFEQSCFAIQNVISDSSGMVCDGAKASCAMKVSTSSSAAVRSFLMALSSQNVSGQGIIANHVEKTIKNIGKMVLNGMSSTDVTIINIMSE”, the “soluble on expression in E. coli” value was “not soluble”. For “MLQNSRIKMNPKKLYQADGHAVQELLPAMKILYQAKAEDPNTDNSPKWTQVKNKLSSKMQEVRITRQLSSQLPETGALLSELLSRQEFISQQHERAASRAVPLAEAEKVLQATVQNIAQETEQLSNKLNNVASDEAELDEKIERKKREYEQLQKRFAKLQSFRPQYMDEYERFEERLKKLYEVYVLNFRNLSYLRKVHDDLARSERQRQEELEKAMRMAVEKMRLEQEKKDAIGLHDDDGSDAPLVDRRQSVRKVYGNMMGGDASDDDEDDEDDEDDEIIRMDDNVAQHHKRELHRQEEDEERSEADYMVGITTAHVADDAKSDLSSGDDF”, the “soluble on expression in E. coli” value was “not soluble”. For “MSLSLKLPKADRSIETYRLAASRTFPARLEGPLNRIAFSAVHTVADPFADNDPWLSVAVDWDKTIAFREHVWDLGLGVAEAMDTAQRGMGLDWPTSLELITRSVAAAKRRNALVFSGAGTDHLAVEDARTVDDVIRAYEEQISAVEKVGGRIILMASRALAKLGRNADDYAKVYDRVLSQVREPVIIHWLGDMFDPALTGYWGTKDLDKAMDVAVAVINANAAKVDGVKVSLLDKQREIDMRRRLDKRIRMYTGDDFNYAELIAGDSQGFSHALLGIFDAIAPAASYALSRLAAGDEAGFHDVLGPTVPLSRHIFKAPTRFYKTGVVFMAYLNGHQDHFTMVGGQESARSMLHLAELFRLADQAGLLANPELATRRMTTVLASHGIESEGHHHHHH”, the “soluble on expression in E. coli” value was “soluble”. For “MTKVSVVGAAGTVGAAAGYNIALRDIADEVVFVDIPDKEDDTVGQAADTNHGIAYDSNTRVRQGGYEDTAGSDVVVITAGIPRQPGQTRIDLAGDNAPIMEDIQSSLDEHNDDYISLTTSNPVDLLNRHLYEAGDRSREQVIGFGGRLDSARFRYVLSEEFDAPVQNVEGTILGEHGDAQVPVFSKVSVDGTDPEFSGDEKEQLLGDLQESAMDVIERKGATEWGPARGVAHMVEAILHDTGEVLPASVKLEGEFGHEDTAFGVPVSLGSNGVEEIVEWDLDDYEQDLMADAAEKLSDQYDKIS”, the “soluble on expression in E. coli” value was “soluble”. With “MDMNEEYGLTPYETREILFYKTDNGEVRVEILLYQENLWLTQAKMAELFEVQKAAISKHLKNIFTSGELQEEAVVSKMETTAADGKRYNTSYYNLDAIIAVGYRVNSKKATMFRIWANRVLKEFIIKGYVMDDARLREPENLFGKDYFEEQLERIRDIRSSERRFYQKITDIYSQCSADYDVNSPVTKEFFATVQNKLHYAVTHHTAAEIVYGRADSTKPNMGLTTWKNAPQGRIRKSDVSIAKNYLNEEEMINLNEIVTMYLDYAERQARRGNIMYMQDWVNRLDAFLQFNEEDILHDKGKVTAAIAKAFAESEFEKFRVLQDRTYQSDFDRLVANIEENSKQTK” the “soluble on expression in E. coli” value was “not soluble”. In the case of “MSLGGELSLQIINKNPYKLYMDIKGFGFKTVDSIALSMGIEPDSNFRTKAAILYCLEQKEQNGDTYAFIEDIHQQVEKLLNIKINDIKNYLDKEYYYFDVLRLAKRTTWETEKDISVRLKEKINNSQKLFTNNVIHLIPEIERILRIKYDDKQKELFYKINENNILVLTGFAGTGKSSVLNGLLNLFDKKNITYKLMSPTAKAAKRMEECTGKKASTIHRALGLAEGKFLVNEKNPFAEDVIIIDETSMVDIYLFLAVLKGIKNTTKLLCLGDYGQLESISAGNVLFDMIQGGIPCVKLEKIFRQKEDSSLLNVITNIRNGDNPLKNTHKTYLELGRDCKFWLGKKEQTLSRVLLCYKECLKHFSREDIMVLCPMKKGNSGVNKLNQELQKIANSQNTEELKLKDCAYKKEDLVMHIKNDYNANIFSEDCKDTIAKGIFNGDAGKIEKIDLENQKLYVSYDSGIVEYDNSNLNELMLSYALTIHKVQGSQSKVVIVALDMSHYKMLKRSLLYTAASRCVELLIFICDPKAFSIALNNNQVTHKNTFLGELLKISEGHHHHHH”, the “soluble on expression in E. coli” value is reported as “soluble”. In the case of “MGSDKIHHHHHHMQIISHRGYWLHKPERNLTQAFHRSFDFGFGTETDVRDVAGQLVISHDMPVGGELTLDGLLDIMAGRNLPLAINVKADGMALALKKTFARYGHTNWFVFDMAVPDMRSYLIEEVITYSRLSDVEPSPAWLERATGVWLDGFDSEWFSNQVIGDLLSQDKQVCVVSPELHGRDCMALWQQLLEFRSENRLTLCTDTPVDAAIFFK”, the “soluble on expression in E. coli” value is reported as “not soluble”. In the case of “MSLQKPKIAFIDDEPRILRSLKMHFRQSHDVFITTDASELMKYVSEHDVQVVISDQRMPDKQGTEVLRDIKAASPNTLRILLTGYADLNAVIDSVNEGEIYRYITKPWQNDELKQIVNKATEIAQQTQEITQNTEGHHHHHH”, the “soluble on expression in E. coli” value is reported as “not soluble”.
